# Test results reported in IntAct's records for PubMed 25910212.
# B1: EF-hand domain-containing protein 1 (Homo sapiens), Q5JVL4 (parent)
# chain: MVSNPVHGLPFLPGTSFKDSTKTAFHRSQTLSYRNGYAIVRRPTVGIGGDRLQFNQLSQAELDELASKAPVLTYGQPKQAPPADFIPAHVAFDKKVLKFDAYFQEDVPMSTEEQYRIRQVNIYYYLEDDSMSVIEPVVENSGILQGKLIKRQRLAKNDRGDHYHWKDLNRGINITIYGKTFRVVDCDQFTQVFLESQGIELNPPEKMALDPYTELRKQPLRKYVTPSDFDQLKQFLTFDKQVLRFYAIWDDTDSMYGECRTYIIHYYLMDDTVEIREVHERNDGRDPFPLLMNRQRVPKVLVENAKNFPQCVLEISDQEVLEWYTAKDFIVGKSLTILGRTFFIYDCDPFTRRYYKEKFGITDLPRIDVSKREPPPVKQELPPYNGFGLVEDSAQNCFALIPKAPKKDVIKMLVNDNKVLRYLAVLESPIPEDKDRRFVFSYFLATDMISIFEPPVRNSGIIGGKYLGRTKVVKPYSTVDNPVYYGPSDFFIGAVIEVFGHRFIILDTDEYVLKYMESNAAQYSPEALASIQNHVRKREAPAPEAESKQTEKDPGVQELEALIDTIQKQLKDHSCKDNIREAFQIYDKEASGYVDRDMFFKICESLNVPVDDSLVKELIRMCSHGEGKINYYNFVRAFSN
# partner: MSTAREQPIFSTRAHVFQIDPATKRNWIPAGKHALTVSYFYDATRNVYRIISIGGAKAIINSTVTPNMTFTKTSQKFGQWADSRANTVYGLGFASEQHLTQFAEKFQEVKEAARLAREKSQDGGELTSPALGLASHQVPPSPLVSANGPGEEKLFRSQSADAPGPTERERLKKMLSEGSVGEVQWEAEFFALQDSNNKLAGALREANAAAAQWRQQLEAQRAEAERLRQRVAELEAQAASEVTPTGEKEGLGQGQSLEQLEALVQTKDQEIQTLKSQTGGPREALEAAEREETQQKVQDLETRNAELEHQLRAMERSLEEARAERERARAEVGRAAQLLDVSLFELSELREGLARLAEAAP
# B2: Phakinin (Homo sapiens), Q13515 (parent)
# chain: MSERRVVVDLPTSASSSMPLQRRRASFRGPRSSSSLESPPASRTNAMSGLVRAPGVYVGTAPSGCIGGLGARVTRRALGISSVFLQGLRSSGLATVPAPGLERDHGAVEDLGGCLVEYMAKVHALEQVSQELETQLRMHLESKATRSGNWGALRASWASSCQQVGEAVLENARLMLQTETIQAGADDFKERYENEQPFRKAAEEEINSLYKVIDEANLTKMDLESQIESLKEELGSLSRNYEEDVKLLHKQLAGCELEQMDAPIGTGLDDILETIRIQWERDVEKNRVEAGALLQAKQQAEVAHMSQTQEEKLAAALRVELHNTSCQVQSLQAETESLRALKRGLENTLHDAKHWHDMELQNLGAVVGRLEAELREIRAEAEQQQQERAHLLARKCQLQKDVASYHALLDREESG
# partner: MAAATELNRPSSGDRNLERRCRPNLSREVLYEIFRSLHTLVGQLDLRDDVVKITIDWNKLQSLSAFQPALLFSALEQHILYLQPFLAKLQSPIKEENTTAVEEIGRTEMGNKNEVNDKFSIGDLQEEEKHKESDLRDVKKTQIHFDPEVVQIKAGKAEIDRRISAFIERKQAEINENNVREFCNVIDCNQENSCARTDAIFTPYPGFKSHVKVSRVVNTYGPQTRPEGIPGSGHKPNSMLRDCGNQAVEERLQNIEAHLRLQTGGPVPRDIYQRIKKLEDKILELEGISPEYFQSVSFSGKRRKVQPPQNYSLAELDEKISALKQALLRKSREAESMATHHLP
# B3: 5-aminolevulinate synthase, erythroid-specific, mitochondrial (Homo sapiens), P22557-2 (parent)
# chain: MVTAAMLLQCCPVLARGPTSLLGKVVKTHQFLFGIGRCPILATQGPNCSQIHLKATKAGGDSPSWAKGHCPFMLSELQDGKSKIVQKAAPEVQEDVKAFKTGNYVFSYDQFFRDKIMEKKQDHTYRVFKTVNRWADAYPFAQHFSEASVASKDVSVWCSNDYLGMSRHPQVLQATQETLQRHGAGAGGTRNISGTSKFHVELEQELAELHQKDSALLFSSCFVANDSTLFTLAKILPGCEIYSDAGNHASMIQGIRNSGAAKFVFRHNDPDHLKKLLEKSNPKIPKIVAFETVHSMDGAICPLEELCDVSHQYGALTFVDEVHAVGLYGSRGAGIGERDGIMHKIDIISGTLGKAFGCVGGYIASTRDLVDMVRSYAAGFIFTTSLPPMVLSGALESVRLLKGEEGQALRRAHQRNVKHMRQLLMDRGLPVIPCPSHIIPIRVGNAALNSKLCDLLLSKHGIYVQAINYPTVPRGEELLRLAPSPHHSPQMMEDFVEKLLLAWTAVGLPLQDVSVAACNFCRRPVHFELMSEWERSYFGNMGPQYVTTYA
# partner: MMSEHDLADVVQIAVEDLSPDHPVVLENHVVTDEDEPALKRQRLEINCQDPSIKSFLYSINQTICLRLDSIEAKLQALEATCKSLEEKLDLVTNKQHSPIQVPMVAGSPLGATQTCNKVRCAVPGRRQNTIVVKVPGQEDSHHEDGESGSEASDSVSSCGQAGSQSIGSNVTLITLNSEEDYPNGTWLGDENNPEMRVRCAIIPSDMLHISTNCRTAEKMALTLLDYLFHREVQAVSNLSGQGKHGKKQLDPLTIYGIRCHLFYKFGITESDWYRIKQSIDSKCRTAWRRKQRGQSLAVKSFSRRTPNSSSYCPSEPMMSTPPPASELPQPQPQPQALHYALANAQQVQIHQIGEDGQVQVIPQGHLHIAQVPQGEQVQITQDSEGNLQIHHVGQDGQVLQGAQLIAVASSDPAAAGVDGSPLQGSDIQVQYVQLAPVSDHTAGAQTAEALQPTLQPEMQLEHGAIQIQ
# Variants of: B1
# Conditions: with home3_human HOMER3, Q9NSC5
row,Variant,effect of a mutation on the interaction
1,M448T,with no effect
2,R159W,with no effect
3,P77T,disrupting interaction strength
4,A394S,disrupting interaction strength

# Variants of: B2
# Conditions: with MBIP
row,Variant,effect of a mutation on the interaction
1,R339H,with no effect
2,A407D,with no effect

# Variants of: B3
# Conditions: with BANP
row,Variant,effect of a mutation on the interaction
1,I439N,disrupting interaction strength
2,R411Q,disrupting interaction strength
3,R133H,with no effect
4,I252T,disrupting interaction strength
